Target: Blom7α-His6 (pET-30a(+)) (human, UniProt Q7Z7F0-1 1-614)
Assay: pull-down

- binding result: binds
B1: GST-SNEV^Prp19-Pso4 (natural protein)
chain: MSLICSISNEVPEHPCVSPVSNHVYERRLIEKYIAENGTDPINNQPLSEEQLIDIKVAHPIRPKPPSATSIPAILKALQDEWDAVMLHSFTLRQQLQTTRQELSHALYQHDAACRVIARLTKEVTAAREALATLKPQAGLIVPQAVPSSQPSVVGAGEPMDLGELVGMTPEIIQKLQDKATVLTTERKKRGKTVPEELVKPEELSKYRQVASHVGLHSASIPGILALDLCPSDTNKILTGGADKNVVVFDKSSEQILATLKGHTKKVTSVVFHPSQDLVFSASPDATIRIWSVPNASCVQVVRAHESAVTGLSLHATGDYLLSSSDDQYWAFSDIQTGRVLTKVTDETSGCSLTCAQFHPDGLIFGTGTMDSQIKIWDLKERTNVANFPGHSGPITSIAFSENGYYLATAADDSSVKLWDLRKLKNFKTLQLDNNFEVKSLIFDQSGTYLALGGTDVQIYICKQWTEILHFTEHSGLTTGVAFGHHAKFIASTGMDRSLKFYSL
